# Earlier results as cited in article PMC5428663, “Identification of small molecule inhibitors of Interleukin-18” (Scientific Reports, 2017).
# B1: hIL-18BP (protein, UniProt O95998 31-194, looked up)
# Interleukin-18-binding protein: TPVSQTTTAATASVRSTKDPCPSQPPVFPAAKQCPALEVTWPEVEVPLNGTLSLSCVACSRFPNFSILYWLGNGSFIEHLPGRLWEGSTSRERGSTGTQLCKALVLEQLTPALHSTNFSCVLVDPEQVVQRHVVLAQLWAGLRATLPPTQEALPSSHSSPQQQG
# Molecular target: hIL-18
# Conditions: read-out: affinity for hIL-18
molecule,measurement,value
B1,Kd,0.4 nM
